Measurements reported in patent US20120251580A1.

Legend:
[1] = molecular target: purified recombinant galectin-3 (gal3) (UniProt P17931); assay: solid phase assay, inhibition of gal3 binding to asialofetuin
[2] = molecular target: prostate cancer patient serum-associated gal3 (human) (UniProt P17931); assay: cell-based or functional assay
[3] = molecular target: gal3 on the surface of human PC3 and HUVEC cells (human) (UniProt P17931); assay: cell-based or functional assay
[4] = molecular target: purified recombinant galectin-3 (gal3) (UniProt P17931); assay: cell-based or functional assay
[5] = molecular target: gal3 on the surface of B16 melanoma cells (murine) (UniProt P16110); assay: cell-based or functional assay
gal4 [6] = assay: solid phase assay, inhibition of gal4 binding to plate-bound asialofetuin (competitor), anti-galectin antibody detection
[7] = molecular target: purified recombinant galectin-3 (gal3) (UniProt P17931); assay: SPR (Biacore T200), biotinylated gal3 captured on SA chip, TFD100 0.312-10 nM, 1:1 binding model
[8] = molecular target: purified recombinant galectin-3 (gal3) (UniProt P17931); assay: solid phase assay, inhibition of gal3 binding to asialofetuin, molar basis
[9] = molecular target: purified recombinant galectin-3 (gal3) (UniProt P17931); assay: SPR (Biacore T200), biotinylated gal3 captured on SA chip, 1:1 binding model
[10] = molecular target: N-terminal of gal9 (gal9N); assay: solid phase assay, inhibition of gal9N binding to asialofetuin
[11] = molecular target: purified recombinant galectin-3 (gal3) (UniProt P17931); assay: SPR (Biacore T200), derived from the dissociation rate
gal4 [12] = assay: solid phase assay, inhibition of gal4 binding to asialofetuin
[13] = molecular target: purified recombinant galectin-3 (gal3) (UniProt P17931); assay: solid phase assay, inhibition of gal3 binding to plate-bound asialofetuin (competitor)
[14] = molecular target: N-terminal of gal9 (gal9N); assay: solid phase assay, inhibition of gal9N binding to plate-bound asialofetuin (competitor), anti-galectin antibody detection
[15] = molecular target: gal3 on the surface of human PC3 and HUVEC cells (human) (UniProt P17931); assay: flow cytometry on PC3 cells (unstained cells 205), control
[16] = molecular target: gal3 on the surface of B16 melanoma cells (murine) (UniProt P16110); assay: flow cytometry on B16 melanoma cells (unstained cells 214), control
[17] = molecular target: gal3 on the surface of human PC3 and HUVEC cells (human) (UniProt P17931); assay: flow cytometry on HUVEC cells (unstained cells 97), control

Chain of purified recombinant galectin-3 (gal3) (P17931 whole entry, the tested form may be a part): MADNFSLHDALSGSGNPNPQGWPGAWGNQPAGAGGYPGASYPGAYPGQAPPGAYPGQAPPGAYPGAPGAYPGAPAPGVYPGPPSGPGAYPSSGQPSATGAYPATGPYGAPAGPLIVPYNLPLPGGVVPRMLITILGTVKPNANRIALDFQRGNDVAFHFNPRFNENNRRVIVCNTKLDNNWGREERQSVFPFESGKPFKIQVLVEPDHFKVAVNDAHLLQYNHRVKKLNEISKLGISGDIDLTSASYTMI
Chain of gal3 on the surface of human PC3 and HUVEC cells (human) (P17931 2-250): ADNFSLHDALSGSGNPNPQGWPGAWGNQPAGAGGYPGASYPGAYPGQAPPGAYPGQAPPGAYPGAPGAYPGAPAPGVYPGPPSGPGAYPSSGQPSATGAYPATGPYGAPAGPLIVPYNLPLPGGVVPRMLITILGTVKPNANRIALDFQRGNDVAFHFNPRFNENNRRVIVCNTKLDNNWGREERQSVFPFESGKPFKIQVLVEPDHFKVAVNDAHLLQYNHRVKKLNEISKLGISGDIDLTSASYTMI
Chain of gal3 on the surface of B16 melanoma cells (murine) (P16110 2-264): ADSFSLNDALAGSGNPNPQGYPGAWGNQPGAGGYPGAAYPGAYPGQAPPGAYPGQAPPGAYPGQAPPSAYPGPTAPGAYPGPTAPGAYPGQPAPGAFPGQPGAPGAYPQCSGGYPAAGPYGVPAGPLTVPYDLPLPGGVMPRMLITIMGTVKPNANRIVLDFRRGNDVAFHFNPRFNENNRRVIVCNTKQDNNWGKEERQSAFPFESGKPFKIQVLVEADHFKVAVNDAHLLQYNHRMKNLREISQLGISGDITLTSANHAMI
Chain of prostate cancer patient serum-associated gal3 (human) (P17931 2-250 limits assumed): as the sequence (P17931 2-250) above

“Crude extract (crude anti-freeze glycoproteins of cod, A/F Protein)” showed an IC50 [1] of 108 µg/mL and an RIA (relative inhibitory activity compared to lactose taken as 1) (relative to lactose = 1) [1] of 0.25.

In the case of “Fraction 1 (>50 kDa) of cod anti-freeze glycoproteins”, the IC50 [1] is reported as 2.5 µg/mL and the RIA (relative inhibitory activity compared to lactose taken as 1) (relative to lactose = 1) [1] is reported as 10.5.

With “Fraction 2 (<50 kDa, >30 kDa) of cod anti-freeze glycoproteins” the IC50 [1] was 27 µg/mL and the RIA (relative inhibitory activity compared to lactose taken as 1) (relative to lactose = 1) [1] was 1.

In the case of “Fraction 3 (<30 kDa, >10 kDa) of cod anti-freeze glycoproteins”, the IC50 [1] is reported as 82 µg/mL and the RIA (relative inhibitory activity compared to lactose taken as 1) (relative to lactose = 1) [1] is reported as 0.33.

For “Fraction 4 (<10 kDa, >3 kDa) of cod anti-freeze glycoproteins”, the IC50 [1] was 300 µg/mL and the RIA (relative inhibitory activity compared to lactose taken as 1) (relative to lactose = 1) [1] was 0.09.

With “Fraction 5 (<3 kDa) of cod anti-freeze glycoproteins” the RIA (relative inhibitory activity compared to lactose taken as 1) (relative to lactose = 1) [1] was under 0.06.

Work on O-glycosidase treated TFD100 yielded a % inhibition at 6.2 nM [1] of 45%.

With “TFD100 (Thomsen-Friedenreich disaccharide-containing glycopeptide of approximately 100 kDa purified from Pacific cod, Gadus macrocephalus)” the apoptosis of activated tumor-specific CD8+ cells with patient serum plus 3.5 nM TFD100 (87-93% with patient serum alone) [2] was 66 % apoptosis, the inhibition of binding of calcein-labeled PC3 cells to HUVEC monolayer (PC3 pre-treated with 3.5 nM TFD100) [3] was 33% and the inhibition of tumor-endothelial cell interactions (HUVEC monolayer pre-incubated with 3.5 nM TFD100) [3] was 45%. It also gave an apoptosis of activated pmel CD8+ T cells with 5 µM recombinant gal3 plus 3.5 nM TFD100 (˜76% with gal3 alone, ˜61% CD8 alone) [4] of 72 % apoptosis, an inhibition of gal3 (5 µM)-induced apoptosis of MOLT-4 cells by 3.5 nM TFD100 (annexin V binding) [4] of 34% and an inhibition of gal3 (5 µM)-induced apoptosis of human CD8+ T cells by 3.5 nM TFD100 [4] of 77%. It also gave an inhibition of gal3 (5 µM)-mediated apoptosis of Jurkat cells by 3.5 nM TFD100 [4] of 63%, an apoptosis of activated tumor specific CD8+ T cells on a B16 monolayer with 3.5 nM TFD100 (about 53% without) [5] of 36 % apoptosis and an IC50 (gal4 [6]) of 1.2 nM. It also gave a Kd [7] of 0.0968 nM, a fold activity in inhibiting gal3 binding compared to free TFD [8] of 800000 fold and a koff [9] of 0.0003 s⁻¹. It also gave a kon [9] of 3.1e+06 M⁻¹ s⁻¹, an RIA (relative inhibitory activity compared to lactose taken as 1) (fold vs lactose) [10] of 66700 and a half-life for the complex [11] of 38.5 min. It also gave an RIA (relative inhibitory activity compared to lactose taken as 1) (fold vs lactose) [1] of 400000, an RIA (relative inhibitory activity compared to lactose taken as 1) (fold vs lactose) (gal4 [12]) of 8.33e+06 and an IC50 [13] of 0.25 nM. The IC50 [14] was 1.5 nM.

Substance “pre-immune IgG (protein A-Sepharose purified pre-immune rabbit serum) (antibody)” has a mean fluorescence unit (mfu) [15] of 759 mfu, a mean fluorescence unit (mfu) [16] of 1000 mfu and a mean fluorescence unit (mfu) [17] of 95 mfu.
